According to article PMC4736712, “Direct α-synuclein promoter transactivation by the tumor suppressor p53”:

What was measured:
[1] = biological target: T1, p53 (wild-type recombinant, p53r) (UniProt P04637 1-393); assay: EMSA; 200 ng p53, 20 fmol probe; shift blocked by anti-p53 pab421 or DO1; 1X binding buffer (Promega), 100 ng poly(dI-dC), 10 mM DTT, 1 mg/ml BSA, 4 °C, 30 min; 5% native PAGE at 4 °C; salt and pH not stated; conditions: protein: commercial; chain copies: 4; label: 5' biotin; blunt
[2] = biological target: T1, p53 (wild-type recombinant, p53r); assay: competition EMSA; 4 pmol cold competitor (200-fold excess) blocks shift of N1; 1X binding buffer (Promega), 100 ng poly(dI-dC), 10 mM DTT, 1 mg/ml BSA, 4 °C, 30 min; 5% native PAGE at 4 °C; salt and pH not stated; conditions: protein: commercial; chain copies: 4; blunt

T1 sequence (P04637 whole entry): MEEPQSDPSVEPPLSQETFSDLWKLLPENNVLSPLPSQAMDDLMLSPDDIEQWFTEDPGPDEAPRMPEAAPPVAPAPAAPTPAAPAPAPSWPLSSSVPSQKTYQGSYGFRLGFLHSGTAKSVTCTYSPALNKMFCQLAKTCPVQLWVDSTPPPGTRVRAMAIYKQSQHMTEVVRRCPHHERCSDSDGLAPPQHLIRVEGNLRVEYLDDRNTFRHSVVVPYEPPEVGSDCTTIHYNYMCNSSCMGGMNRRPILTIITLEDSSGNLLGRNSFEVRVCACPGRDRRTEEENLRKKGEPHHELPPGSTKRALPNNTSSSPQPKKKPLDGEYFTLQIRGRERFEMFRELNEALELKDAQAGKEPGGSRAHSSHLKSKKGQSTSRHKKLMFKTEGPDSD

| Binder | binding result [1] | binding result [2] |
| --- | --- | --- |
| alpha-syn promoter probe (p53 half-site) (dsDNA) DNA 1: CCTTTCGCTGGAGACATGCCCTTCCATCCTGTCAAAGCCC DNA 2: GGGCTTTGACAGGATGGAAGGGCATGTCTCCAGCGAAAGG | binds | – |
| unlabeled specific competitor (comp-sp) (dsDNA) DNA 1: CCTTTCGCTGGAGACATGCCCTTCCATCCTGTCAAAGCCC DNA 2: GGGCTTTGACAGGATGGAAGGGCATGTCTCCAGCGAAAGG | – | binds |
